The record followed here is US20210214440A1.

This experiment concerns the target CD3 (UniProt P07766). As to the kind of experiment: method and format not stated.

B1: CD3B450 (antibody, V domains shown)
VH: QVQLQQSGPGLVKPSQTLSLTCAISGDSVFNNNAAWSWIRQSPSRGLEWLGRTYYRSKWLYDYAVSVKSRITINPDTSKNQFSLQLNSVTPEDTAVYYCARGYSSSFDYWGQGTLVTVSS
VL: QSALTQPASVSGSPGQSITISCTGTSSNIGTYKFVSWYQQHPGKAPKVMIYEVSKRPSGVSNRFSGSKSGNTASLTISGLQAEDEADYYCVSYAGSGTLLFGGGTKLTVL
As a reminder, the Kd is the equilibrium constant for the complex coming apart. A lower Kd goes with a tighter complex. The molecule B1 displayed a Kd of 80 nM.
